Experimental findings from publication doi:10.1101/2023.05.26.542392 are described below.

This assay has as its target Full-length SARS-Cov-2-Nucleocapsid (FLN), WT (SARS-CoV-2). The assay is described as follows: AUC.

As a reminder, the stoichiometry N is a count of units in the complex or per binding partner. In turn, “Full-length SARS-Cov-2-Nucleocapsid (FLN), WT (natural protein)” came in with a stoichiometry N of 2.
